Experimental data published in publication PMC3760305, “Mimicking Protein–Protein Interactions through Peptide–Peptide Interactions: HIV-1 gp120 and CXCR4” (Frontiers in Immunology, 2013).

Legend:
[1] = molecular target: CXCR4 mimetic peptide CX4-M1; assay: SPR; Biacore X100, Biotin CAPture Kit; CX4-M1 (2 μM) bound to streptavidin; gp120 8–0.5 nM; HBS-N (10 mM HEPES, 150 mM NaCl, pH 7.4), 0.05% Tween 20, 2.5 mM MgCl2; no sCD4
[2] = molecular target: CXCR4 mimetic peptide CX4-M1; assay: SPR; Biacore X100, Biotin CAPture Kit; CX4-M1 (2 μM) bound to streptavidin; V3 loop peptides 5–0.3 μM; HBS-N (10 mM HEPES, 150 mM NaCl, pH 7.4), 0.05% Tween 20, 100 mM MgCl2; no sCD4
[3] = molecular target: CXCR4 mimetic peptide CX4-M1; assay: direct ELISA; conditions: parent: 1; read off a plot

Substance	ratio to parent [3]	further results
Gp120_(IIIB) (natural protein)	–	Kd [1]: 100 nM
V3 loop peptide V3_(HxBc2)	–	Kd [2]: 300 nM
V3 loop peptide V3_(HxBc2) F317A	0.16	–
V3 loop peptide V3_(HxBc2) G312A	0.82	–
V3 loop peptide V3_(HxBc2) G314A	0.86	–
V3 loop peptide V3_(HxBc2) G321A	0.7	–
V3 loop peptide V3_(HxBc2) G324A	1.4	–
V3 loop peptide V3_(HxBc2) I307A	0.18	–
V3 loop peptide V3_(HxBc2) I309A	0.13	–
V3 loop peptide V3_(HxBc2) I320A	0.16	–
V3 loop peptide V3_(HxBc2) I323A	0.53	–
V3 loop peptide V3_(HxBc2) K322A	2.1	–
V3 loop peptide V3_(HxBc2) M326A	1.3	–
V3 loop peptide V3_(HxBc2) N325A	1.3	–
V3 loop peptide V3_(HxBc2) P313A	0.67	–
V3 loop peptide V3_(HxBc2) Q310A	1	–
V3 loop peptide V3_(HxBc2) R306A	0.78	–
V3 loop peptide V3_(HxBc2) R308A	0.57	–
V3 loop peptide V3_(HxBc2) R311A	1.4	–
V3 loop peptide V3_(HxBc2) R315A	0.46	–
V3 loop peptide V3_(HxBc2) T319A	0.63	–
V3 loop peptide V3_(HxBc2) V318A	0.41	–
gp120MN (natural protein)	–	Kd [1]: 700 nM
gp120_(HxBc2) (from UniProt P04578 33-511) (natural protein)	–	Kd [1]: 200 nM
